Test results as given in PMC5460274, “Human dimethylarginine dimethylaminohydrolase 1 inhibition by proton pump inhibitors and the cardiovascular risk marker asymmetric dimethylarginine: in vitro and in vivo significance” (Scientific Reports, 2017).

Substrate: CN(C)C(=N)NCCC[C@H](N)C(=O)O
Assay: cells, lysate or membranes

B1: dimethylarginine dimethylaminohydrolase 1 (DDAH1) (Homo sapiens) (protein)
chain: AGLGHPAAFGRATHAVVRALPESLGQHALRSAKGEEVDVARAERQHQLYVGVLGSKLGLQVVELPADESLPDCVFVEDVAVVCEETALITRPGAPSRRKEVDMMKEALEKLQLNIVEMKDENATLDGGDVLFTGREFFVGLSKRTNQRGAEILADTFKDYAVSTVPVADGLHLKSFCSMAGPNLIAIGSSESAQKALKIMQQMSDHRYDKLTVPDDIAANCIYLNIPNKGHVLLHRTPEEYPESAKVYEKLKDHMLIPVSMSELEKVDGLLTCCSVLINKKVDS
Protein B1 has a Km of 45 ± 2 µM.
